This is an account of results in the supplement of paper PMC9732359.

The nature of the data set: protein stability index of a GFP-peptide fusion (yeast GPS) (PSI 1-4); higher = more stable; sorted into four equal gates, so the index is relative within each strain. The procedure, abridged:
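Tiled yeast protein peptides of 17 residues were each joined downstream of GFP, on plasmids that also express Cherry. The pooled library was maintained in yeast, and mid-log cultures in leucine-free medium were sorted into four equal gates on the GFP/Cherry ratio. Plasmids from every gate were amplified by PCR and sequenced on Illumina, with barcodes linking reads to strains. The protein stability index of a peptide is its gate-number-weighted read frequency summed over the gates.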

± gives the uncertainty stated by the source.

In the case of YIELLPNADDIRDSIPQ [DIS3], the protein stability index (doa10∆) was determined as 2.83 ± 0.075, the protein stability index (pdr5∆) was 2.85 ± 0.068, the protein stability index (san1∆) amounted to 2.87 ± 0.078 and the protein stability index (ubr1∆) is 2.75 ± 0.039.

With YIHLAYSRSVDKEWVFA [SSN2], the protein stability index by setting is: (doa10∆) 1.81 ± 0.079; (pdr5∆) 1.5 ± 0.057; (san1∆) 1.84 ± 0.091; (ubr1∆) 1.72 ± 0.038.

For the sequence YIKSMDLISKKTKTSLL [RPR2], the protein stability index is, setting by setting: (doa10∆) 2.96 ± 0.081; (pdr5∆) 2.66 ± 0.079; (san1∆) 2.78 ± 0.075; (ubr1∆) 2.79 ± 0.051.

In the case of YINVNPQEETITFLIEK [ECM29], the protein stability index is, setting by setting: (doa10∆) 3.23 ± 0.095; (pdr5∆) 2.96 ± 0.089; (san1∆) 2.91 ± 0.064; (ubr1∆) 3.17 ± 0.06.

On to YIYLSHETLARSSEEIN [RPN3], for which the protein stability index is, setting by setting: (doa10∆) 3.15 ± 0.26; (ubr1∆) 3.15 ± 0.18.

As for YKAISAQADKQDISSST [FAS2], the protein stability index is, setting by setting: (doa10∆) 2.91 ± 0.073; (pdr5∆) 2.87 ± 0.058; (san1∆) 2.3 ± 0.062; (ubr1∆) 2.83 ± 0.045.

Take YKALRGMVSHKTARGKA [RPL16A]: the protein stability index was determined as 2.45 ± 0.08 (doa10∆), 2.1 ± 0.06 (pdr5∆), 2.51 ± 0.096 (san1∆) and 1.84 ± 0.12 (ubr1∆).

YKGMASNDERIVKRLYE [BRR2] registered a protein stability index (doa10∆) of 3.33 ± 0.085, a protein stability index (pdr5∆) of 3.47 ± 0.083, a protein stability index (san1∆) of 3.31 ± 0.052 and a protein stability index (ubr1∆) of 3.51 ± 0.047.

In the case of YKKPTGGIVTVRSEMGE [FAS1], the protein stability index was found to be 2.66 ± 0.13 (doa10∆), 1.69 ± 0.069 (pdr5∆), 1.32 ± 0.18 (san1∆) and 1.39 ± 0.082 (ubr1∆).

As for YKLFIWLVVPTIYNLQH [YML031W/NDC1], the protein stability index reads like this: (doa10∆) 1.36 ± 0.033; (pdr5∆) 1.51 ± 0.032; (san1∆) 1.36 ± 0.059; (ubr1∆) 1.26 ± 0.029.

YKVEHPFFARFKLRIQT [RPB11]: the protein stability index runs as follows: (doa10∆) 2 ± 0.097; (pdr5∆) 1.28 ± 0.057; (san1∆) 1.37 ± 0.11; (ubr1∆) 1.31 ± 0.16.

Consider YKVENVTLYWNNAKLLT [ESC2], for which the protein stability index amounted to 1.71 ± 0.059 (doa10∆), 1.99 ± 0.051 (pdr5∆), 1.71 ± 0.076 (san1∆) and 2.19 ± 0.043 (ubr1∆).

In the case of YLAKLSKQLSLEEKKKR [IRR1], the protein stability index reads like this: (doa10∆) 2.65 ± 0.098; (pdr5∆) 2.75 ± 0.085; (san1∆) 2.44 ± 0.11; (ubr1∆) 2.86 ± 0.085.

On to YLDQHKRTRLESLKNLN [SMC3], for which the protein stability index by setting is: (doa10∆) 2.11 ± 0.097; (pdr5∆) 2.23 ± 0.083; (san1∆) 1.7 ± 0.098; (ubr1∆) 2.58 ± 0.21.

On to YLFDEIDAALDKQYRTA [SMC3], for which the protein stability index came to 2.88 ± 0.091 (doa10∆), 2.77 ± 0.097 (pdr5∆), 2.61 ± 0.1 (san1∆) and 3.12 ± 0.064 (ubr1∆).

With YLFHNDRIIHTWRTQLA [ECM29], the protein stability index (doa10∆) came out at 1.55 ± 0.05, the protein stability index (pdr5∆) was found to be 1.77 ± 0.042, the protein stability index (san1∆) amounted to 1.47 ± 0.064 and the protein stability index (ubr1∆) came out at 1.91 ± 0.039.

Regarding YLKESKRKYDEITHPPS [SWI3], the protein stability index amounted to 2.59 ± 0.17 (doa10∆), 3.39 ± 0.15 (pdr5∆), 3.02 ± 0.1 (san1∆) and 3.05 ± 0.11 (ubr1∆).

Regarding YLLEELESYLIVHHPYQ [SSN8], the protein stability index was 2.56 ± 0.058 (doa10∆), 2.45 ± 0.06 (pdr5∆), 2.43 ± 0.056 (san1∆) and 2.36 ± 0.044 (ubr1∆).

As to YLMTYPQQPMVKTKTIE [RET1], the protein stability index (doa10∆) turned out to be 1.81 ± 0.099, the protein stability index (pdr5∆) stood at 1.69 ± 0.15, the protein stability index (san1∆) came to 1.61 ± 0.24 and the protein stability index (ubr1∆) came to 1.08 ± 0.065.

For YLNGTLIGSIRFPTKFV [RET1], the protein stability index (doa10∆) was found to be 2.04 ± 0.075, the protein stability index (pdr5∆) amounted to 1.6 ± 0.053, the protein stability index (san1∆) was determined as 1.64 ± 0.088 and the protein stability index (ubr1∆) came out at 1.56 ± 0.044.

Consider YLYCLDNNITEMLEENF [YCG1], for which the protein stability index was 2.3 ± 0.05 (doa10∆), 2.32 ± 0.046 (pdr5∆), 2.63 ± 0.05 (san1∆) and 2.73 ± 0.039 (ubr1∆).

As to YMEQGNNKIITLVKGPK [SKI6], the protein stability index runs as follows: (doa10∆) 2.76 ± 0.054; (pdr5∆) 3.11 ± 0.085; (san1∆) 2.8 ± 0.054; (ubr1∆) 2.96 ± 0.034.

Take YMHDTELNYFVGCKNLE [GRR1]: the protein stability index by setting is: (doa10∆) 2.92 ± 0.085; (pdr5∆) 2.78 ± 0.081; (san1∆) 3.08 ± 0.079; (ubr1∆) 3.21 ± 0.046.

Take YNEFLYSKAGREELERV [QCR8]: the protein stability index runs as follows: (doa10∆) 2.86 ± 0.11; (pdr5∆) 2.73 ± 0.19; (san1∆) 3.35 ± 0.1; (ubr1∆) 2.98 ± 0.1.

With YNNRSLLDFNTALKQYE [RPN6], the protein stability index came out at 3.32 ± 0.097 (doa10∆), 3.04 ± 0.084 (pdr5∆), 3.15 ± 0.067 (san1∆) and 3.13 ± 0.099 (ubr1∆).

Turning to YPDLKAFHNNLKFLYLL [MED1], the protein stability index (doa10∆) amounted to 2.06 ± 0.059, the protein stability index (pdr5∆) was 2.04 ± 0.05, the protein stability index (san1∆) was found to be 1.83 ± 0.074 and the protein stability index (ubr1∆) turned out to be 1.93 ± 0.037.
